Consider 17 molecules from patent US20110217317A1 (published 2011).

This assay has as its target T1, Rhesus D antigen (human, UniProt Q02161 2-417).
T1 construct: whole, on cells; Presented on RhD-positive erythrocytes in all assays; also called RhD; RhD antigen
T1 sequence (looked up): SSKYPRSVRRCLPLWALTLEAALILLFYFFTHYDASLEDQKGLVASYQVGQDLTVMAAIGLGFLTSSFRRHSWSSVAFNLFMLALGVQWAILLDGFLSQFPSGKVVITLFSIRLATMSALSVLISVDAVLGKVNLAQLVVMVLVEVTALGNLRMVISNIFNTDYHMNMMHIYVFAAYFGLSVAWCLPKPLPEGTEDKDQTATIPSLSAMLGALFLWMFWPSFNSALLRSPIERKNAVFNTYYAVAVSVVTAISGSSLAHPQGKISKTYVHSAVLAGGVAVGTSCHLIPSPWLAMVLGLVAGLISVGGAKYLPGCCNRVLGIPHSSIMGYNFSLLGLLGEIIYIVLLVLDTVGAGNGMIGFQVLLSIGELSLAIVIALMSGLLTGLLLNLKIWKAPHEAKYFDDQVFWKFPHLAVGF
Nature of the assay: agglutination assay, Fab on RhD(+)/RhD(-) RBC mix. As to the method: After each round of panning single colonies were picked for analysis of their binding properties to red blood cells in agglutination assays. Briefly, single colonies were inoculated into 2×YT/100 μg/mL carbenicillin/1% glucose and shaken overnight at 37° C. The next day, DeepWell plates were inoculated using 900 μl 2×YT/100 μg/mL carbenicillin/0.1% glucose and 10 μl overnight culture. The plates were shaken for two hours at 37° C., before Fab induction was performed with addition of 300 μl 2×YT/100 μg/mL carbenicillin/0.25 mM IPTG per well. The plate was shaken overnight at 30° C. The following day, the bacteria were pelleted by centrifugation (3200×g, 4° C., 10 minutes), and re-suspended in 100 μl of 0.8 M NaCl, 0.2×PBS, 8 mM EDTA, and incubated for 15 minutes on ice in order to perform a periplasmic extraction of the Fab fragments. The plate was transferred to −20° C. and finally the suspension was thawed and centrifugation was performed for 10 minutes at 4° C. and 3200×g. The periplasmic extract was used in ELISA assays for analysis of Fab content and in agglutination assays to evaluate the binding potential of the individual Fab fragments. The agglutination assay was performed as follows: RhD(−) and RhD(+) RBC were mixed in a 1:1 ratio, and washed 3 times in PBS. After the final wash, the cell mix was re-suspended in 1% BSA in PBS at a density of 1% cells, 50 μl was added to each well of a 96-plate. Periplasmic extracts were added to the wells. As a positive control Rhesogamma P immunoglobulin (Aventis) was used according to the manufacturer's instructions. The plates were incubated for one hour at room temperature with gentle shaking. The cells were washed three times with PBS, before the secondary antibody was added (goat anti-human Fab/FITC conjugate, Sigma F5512) in a 1:100 dilution. The plates were left for agglutination for one hour at room temperature without shaking. Fab fragments positive in the agglutination assay was determined by visual inspection, and recorded by taking a picture. Quantization of the binding activity of the Fab fragments was performed by FACS analysis of the agglutination samples.

Changes are numbered by the printed parent chain.

B1: RhD158.119B06 (Fab, V domains shown)
VH: EVQLVETGGGVVQPGRSLRLSCAASGFSFSNFGFHWIRQSPGKGLEWVAVIWYDGSNRFYADSVKGRFTISRDSSKNMLFLQMDSLRAEDTAVYYCAREISMKVVIRRHYVMDVWGHGTTVTVSS
VL: DIQMTQSPSPLSASVGDRVSITCRASRGISNSLAWYQQKPGKVPKLLIYAASTLQSGVPSRFSGGGSGTDFTLTISSLQPEDVATYYCHTYNSAPFAFGPGTKVDIKR
notes: Tested as Fab (periplasmic extract)
For the molecule B1, the binding result is reported as “binds”.

B2: RhD239.126F09 (Fab, V domains shown)
VH: QVQLVESGGGVVQPGTSLRLSCAASGFTFRTYGMHWVRQAPGKGLEWVAYIWYDGSNKYYADSVKGRFTISRDNSKSTLNLQMNSLRAEDTAVYYCAREIASRGYSRYLYYFDSWGQGTLVTVSS
VL: DIQLTQSPSSLSASVGDRVTITCRASQSISSYLNWYQQKPGKAPKLLISAASSLQSGVPSRFSGSGSGTDFTLTISSLQREDYATYYCQQSYSTPPYTFGQGTKLEIKR
notes: as for B1
For the molecule B2, the binding result is “binds”.

B3: RhD292.109A02 (Fab, V domains shown)
VH: QVQLVETGGGVVQPGRSLRLSCAASGFTFSSYGMHWVRQAPGKGLEWVAVIWSDGSNKYYADSVKGRFTISRDNSRNTLYLQMNSLRAEDTAVFYCAREQGGYSSSWYRRYYYYYMDVWGQGTTVTVSS
VL: B2 VL with L4M, Y32W, K45N, S49F, S53T, R80P, Y83F, T94S, P95S, P96V
notes: as for B1
Consider B3, for which the binding result is reported as “binds”.

B4: RhD243.109A05 (Fab, V domains shown)
VH: QVQLVESGGGVVQPGRSLRLSCAASGFTFSTYGMHWVRQAPGKGLEWVAVIWYDGSQKYYVDSVKGRFTISRDNSKNTLYLQMNSLRAEDTAVYYCAREVAVRGVIRYYYGMDVWGQGTTVTVSS
VL: DIQLTQSPSSLAASVGDRVIITCRSGQGIRNYLNWYQQKPGKAPKLLIYAASFLQSGVPSRFSGSGSGTDFTLTISSLQPEDFATYNCQQSYSDPWTFGQGTKVEIKR
notes: as for B1
Consider B4, for which the binding result is “binds”.

B5: RhD293.109A09 (Fab, V domains shown)
VH: B4 VH with Q1E, S30N, Q57N, V61A, G111A
VL: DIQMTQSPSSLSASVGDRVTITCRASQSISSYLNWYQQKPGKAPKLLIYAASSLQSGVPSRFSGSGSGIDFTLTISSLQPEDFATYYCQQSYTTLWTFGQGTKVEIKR
notes: as for B1
For the molecule B5, the binding result was “binds”.

B6: RhD244.158B10 (Fab, V domains shown)
VH: QVQLVESGGGVVQPGRSLRLSCAASGFSFSSYGMHWVRQAPGKGLEWVAIIWYDGSNKLYADSVKGRFTISRDNSRNTLYLQMSSVRAEDTAVYYCARDSVRGVSRWGTQKYYAMDVWGQGTTVTVSS
VL: DIQMTQSPSSLSASVGDRVIITCRASQSVNRYLNWYQQKPGKAPKLLIYAASSLQGGVPSRFSGSGSGTDFTLTISSLQREDFATYYCQQSYRTRTFGQGTKVEIKR
notes: as for B1
For the molecule B6, the binding result is listed as “binds”.

B7: RhD205.160B12 (Fab, V domains shown)
VH: EVQLVETGGGLVKPGGSLRLSCAASGFTFRSYSMNWVRQAPGKGLEWVSSIGSSSTYTYSADSVKGRFTISRDNAKNSLYLQMNSLRAEDTAVYYCARGEPLNYDYIWGGYRFTIHWGQGTLVTVSS
VL: DIQLTQSPSFLSASVGDRVTITCRASHGISSYLAWYQQKPGKAPNLLIFPASTLQSGVPSRFSGSGSGTEFTLTISSLRPEDFATYYCQQLNSYSRWAFGQGTKVEVKR
notes: as for B1
In the case of B7, the binding result was “binds”.

B8: RhD245.164E06 (Fab, V domains shown)
VH: EVQLVQSGGGVVQPGRSPRLSCAASGFTFSSYGMHWVRQAPGKGLEWVAFIWYDGSNKYYADSVKGRFTISRDNSKNTLYLQMNSLRAEDTAVYYCARDLRNHVFWSGYSTSFDYWGQGTLVTVSS
VL: DIQMTQSPSSLSASVGDGITITCRASQSVRSYLNWYQQKPGKAPELLIYAASRLQSGVPSRFSGSGSGTDFTLTISSLQPEDFATYYCQHSYSTPVTFGQGTKVEVKR
notes: as for B1
For the molecule B8, the binding result was “binds”.

B9: RhD204.128A03 (Fab, V domains shown)
VH: EVQLVESGGGVVQPGRSLRLSCAASGFSFSNYGMHWVRQAPGKGLEWVAVISYDGSEKYYADSVKGRFTISRDNSKKALYLQMNSLRAEDTAMYYCKNKVGATRRAVVAFDIWGQGTTVTVSS
VL: LSSELTQDPAVSVALGQTVRITCQGDSLRSYYANWYQQKPGQAPLSVIYGKNNRPSGIPDRFSGSNSGNTAFLTITGTQAEDEADYYCNSRDSSGNYRELFGGGTKLTVLG
notes: Tested as Fab (periplasmic extract); lambda clone
Consider B9, for which the binding result is “binds”.

B10: RhD294.119E10 (Fab, V domains shown)
VH: B9 VH with E1Q, A78T, F110V, T118M
VL: EIVLTQSPGTLSLSPRERATLSCRANQYVNSNHLAWYQQKPGQAPRLLLYGASRRATGIPDRFSGSGTGTDFTLIISRLEPEDFAVYFCQLYDHSRPMYTFGQGTKLEIKR
notes: as for B1
For the molecule B10, the binding result is listed as “binds”.

B11: RhD240.125A09 (Fab, V domains shown)
VH: QLQLQESGPGLVKPSGTLSLTCAVSGGSMRSSNWWTWVRQPPGKGLEWIGEIHHGGSTNYNPSLQSRVTISVDKSKNRFSLKLSSVTAADTAVYHCARGRSYYDSSGHSFRGLVPFDIWGQGTMVTVSS
VL: DIQMTQSPSTLSASVGDRVTITCRASQSISSWLAWYQQKPGKAPKLLVYKTSSLEGGVPSRFSGSGSGTEFSLTIFRLQSDDFATYYCQQYNSFPYTFGQGTKLEFTR
notes: as for B1
As for B11, the binding result was “binds”.

B12: RhD203.179F07 (Fab, V domains shown)
VH: EVQLVESGGGVVQPGRSLRLSCAASGFTFSNYGMHWVRQAPGKGLEWVAVIWYDGSNKYYADSVKGRFTISRDNSKNTLYLQMNSLRAEDTAVYYCAREMVSYSSSWYRRYYYYVMDVWGKGTTVTVSS
VL: QSALTQPASVSGSPGQSITISCTATSSDIGAYNYVSWYQHHPGKAPKVIITDVNKRPSGVPDRFSGSKSGNTASLTISGLQPEDEAEYSCCSYAGTYSYVFGTGTKVTVLS
notes: as for B1
For the molecule B12, the binding result is “binds”.

B13: RhD208.179B11 (Fab, V domains shown)
VH: B12 VH with S30R, N31T, Y32S, G33A, V115N
VL: QAVVTQEPSLTVSPGGTVTLTCASSTGSVTSGYYPNWFQQKPGQAPRPLISGTSNKLSWTPARFSGSLLGGKAALTVSGVQPEDEAVYYCLLYYGVPQPVVFGGGTKLTVLG
notes: as for B1
Consider B13, for which the binding result was “binds”.

B14: RhD246.179B10 (Fab, V domains shown)
VH: B12 VH with S7T, N31S, V115N
VL: LSSELTQDPAVSVTLGQTVRITCQGDSLRHSYASWYQQKPGQAPILVIYGKNIRPSGIPDRFSGSTSGNTASLTITGAQAEDGGDYYCNSRDTSTDHYVFGDGTRVTVVG
notes: as for B1
As to B14, the binding result is listed as “binds”.

B15: RhD242.181A03 (Fab, V domains shown)
VH: B12 VH with Y32H, V101A
VL: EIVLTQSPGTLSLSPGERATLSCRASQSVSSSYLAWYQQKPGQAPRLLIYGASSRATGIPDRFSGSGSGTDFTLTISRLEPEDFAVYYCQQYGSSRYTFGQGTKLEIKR
notes: as for B1
Regarding B15, the binding result is on record as “binds”.

B16: RhD206.160C06 (Fab, V domains shown)
VH: QVQLVESGGGVVQPGRSLRLSCAASGFTFSSYGMHWVRQAPGKGLEWVAIIWFDGSNKYYADSVKGRFTISRDNSKNTLYLQINSLRAEDTAVYYCAKEHGYYSSSWYRNYYYYAMDVWGQGTTVTVSS
VL: DIQMTQSPSSLSASVGDRVTITCRASQSIRRYLNWYQKKPGKAPKLLIYAASSLQSGVPSRFSGSGSGTDFTLTISSLQPEDFATYYCQQSYRTQGLTFGGGTKVEIKR
notes: as for B1
Consider B16, for which the binding result was “binds”.

B17: RhD241.119B05 (Fab, V domains shown)
VH: QVQLQESGPGLVKPSETLSLICTVSGGSISSNYWSWIRQPPGKGLEWIGYIYYSGNTNYNPSLKSRVTISLDTSKNQFSLKLRSVTAADTAVYYCAREWRQYGSGIRGSRYYYGMDVWGQGTLVTVSS
VL: EIVLTQSPVTLSLSPGERATLSCRASQSVSSGYLAWYQQKPGQAPRLLIYGTSIRATGIPDRFSGSGSGTDFTLTISRLEPEDFAVYYCQQYGSSPLYSFGQGTKVDIKR
notes: as for B1
As to B17, the binding result was “binds”.
